# Measurements reported in US20170233472A1 (MacroGenics, published 2017).
# Numbering of substitutions follows the chain as printed. In names and notes the source's numbering stands.
# B1: TRIDENT-A (other)
# chain 1: QLVLTQSPSASASLGSSVKLTCTLSSGHKTDTIDWYQQQPGKAPRYLMKLEGSGSYNKGSGVPDRFGSGSSSGADRYLTISSLQSEDEADYYCGTDYPGNYLFGGGTQLTVLGGGGSGGGGEVQLVESGGGLVQPGGSLRLSCAASGFTFSTYAMNWVRQAPGKGLEWVGRIRSKYNNYATYYADSVKGRFTISRDDSKNSLYLQMNSLKTEDTAVYYCVRHGNFGNSYVSWFAYWGQGTLVTVSSASTKGEVAACEKEVAALEKEVAALEKEVAALEKGGGDKTHTCPPCPAPEAAGGPSVFLFPPKPKDTLMISRTPEVTCVVVDVSHEDPEVKFNWYVDGVEVHNAKTKPREEQYNSTYRVVSVLTVLHQDWLNGKEYKCKVSNKALPAPIEKTISKAKGQPREPQVYTLPPSREEMTKNQVSLWCLVKGFYPSDIAVEWESNGQPENNYKTTPPVLDSDGSFFLYSKLTVDKSRWQQGNVFSCSVMHEALHNHYTQKSLSLSPGK
# chain 2: QAVVTQEPSLTVSPGGTVTLTCRSSTGAVTTSNYANWVQQKPGQAPRGLIGGTNKRAPWTPARFSGSLLGGKAALTITGAQAEDEADYYCALWYSNLWVFGGGTKLTVLGGGGSGGGGQEQLVESGGGLVQPGGSLRLSCAASGFTFSDYYMSWVRQAPGKGLEWVATIYPSSGKTYYADSVKGRFTISSDNAKNSLYLQMNSLRAEDTAVYYCARDSYADDAALFDIWGQGTTVTVSSASTKGKVAACKEKVAALKEKVAALKEKVAALKE
# chain 3: DIQMTQSPSSLSASVGDRVTITCKGSQDINNYLAWYQQKPGKAPKLLIYNTDILHTGVPSRFSGSGSGTDFTFTISSLQPEDIATYYCYQYNNGYTFGCGTKVEIKGGGGSGGGGSGGGGSQVQLVESGGGVVQPGRSLRLSCAASGFTFSDFGMNWVRQAPGKCLEWVALIYYDGSNKFYADSVKGRFTISRDNSKNTLYLQMNSLRAEDTAVYYCAKPHYDGYYHFFDSWGQGTLVTVSSVEPKSADKTHTCPPCPAPEAAGGPSVFLFPPKPKDTLMISRTPEVTCVVVDVSHEDPEVKFNWYVDGVEVHNAKTKPREEQYNSTYRVVSVLTVLHQDWLNGKEYKCKVSNKALPAPIEKTISKAKGQPREPQVYTLPPSREEMTKNQVSLSCAVKGFYPSDIAVEWESNGQPENNYKTTPPVLDSDGSFFLVSKLTVDKSRWQQGNVFSCSVMHEALHNRYTQKSLSLSPGK
# notes: parental anti-ROR1-VL/VH, CD3 mAb 1 (D65G), TRX2 (anti-CD8) as scFv-Fc third chain
# B2: TRIDENT-B (other)
# chain 1: B1 chain 1
# chain 2: B1 chain 2
# heavy: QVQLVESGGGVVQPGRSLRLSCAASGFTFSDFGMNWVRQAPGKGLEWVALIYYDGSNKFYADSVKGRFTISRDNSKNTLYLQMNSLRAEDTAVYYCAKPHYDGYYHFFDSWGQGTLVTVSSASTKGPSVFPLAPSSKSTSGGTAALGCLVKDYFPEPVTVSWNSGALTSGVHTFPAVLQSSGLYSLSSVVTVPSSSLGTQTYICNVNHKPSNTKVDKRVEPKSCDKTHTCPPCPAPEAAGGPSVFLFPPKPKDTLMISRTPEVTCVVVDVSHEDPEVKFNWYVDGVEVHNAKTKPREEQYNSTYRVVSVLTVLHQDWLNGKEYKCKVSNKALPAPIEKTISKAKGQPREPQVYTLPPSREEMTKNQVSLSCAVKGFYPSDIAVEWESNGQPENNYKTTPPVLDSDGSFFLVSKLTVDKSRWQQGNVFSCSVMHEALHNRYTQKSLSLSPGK
# light: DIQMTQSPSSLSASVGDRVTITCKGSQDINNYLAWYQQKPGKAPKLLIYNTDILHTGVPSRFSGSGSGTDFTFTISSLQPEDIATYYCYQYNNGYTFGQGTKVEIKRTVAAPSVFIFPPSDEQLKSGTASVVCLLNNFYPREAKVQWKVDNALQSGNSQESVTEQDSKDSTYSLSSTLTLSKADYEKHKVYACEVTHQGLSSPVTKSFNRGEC
# notes: parental anti-ROR1-VL/VH, CD3 mAb 1 (D65G), TRX2 (anti-CD8) as Fab-type heavy and light chains
# B3: DART-22 (bispecific antibody)
# chain 1: QLVLTQSPSASASLGSSVKLTCTLSSGHKTDTIDWYQQQPGKAPRYLMKLEGSGSYNKGSGVPDRFGSGSSSGADWYLTISSLQSEDEADYYCGTDYPGNYLFGGGTQLTVLGGGGSGGGGEVQLVESGGGLVQPGGSLRLSCAASGFTFSTYAMNWVRQAPGKGLEWVGRIRSKYNNYATYYADSVKGRFTISRDDSKNSLYLQMNSLKTEDTAVYYCVRHGNFGNSYVSWFAYWGQGTLVTVSSGGCGGGKVAALKEKVAALKEKVAALKEKVAALKE
# chain 2: QAVVTQEPSLTVSPGGTVTLTCRSSTGAVTTSNYANWVQQKPGQAPRGLIGGTNKRAPWTPARFSGSLLGGKAALTITGAQAEDEADYYCALWYSNLWVFGGGTKLTVLGGGGSGGGGQEQLVESGGGLVQPGGSLRLSCAASGFTFSDYYMSWVRQAPGKGLEWVATIYPSSGKTYYADSVKGRLTISSDNAKNSLYLQMNSLRAEDTAVYYCARDSYADDAALFDIWGQGTTVTVSSGGCGGGEVAALEKEVAALEKEVAALEKEVAALEK
# notes: ROR1×CD3 two chain diabody; VL(2): R71W; VH(1): F67L
# B4: DART-30 (bispecific antibody)
# chain 1: B3 chain 1 with S70I
# chain 2: B3 chain 2 with N195D, A215T
# notes: ROR1×CD3 two chain diabody; VL(12): S66I/R71W; VH(7): F67L N76D A93T
# B5: DART-26 (bispecific antibody)
# chain 1: B3 chain 1 with Y97N
# chain 2: B3 chain 2 with L186F, A215T
# notes: ROR1×CD3 two chain diabody; VL(11): R71W/Y92N; VH(3): A93T
# B6: DART-25 (bispecific antibody)
# chain 1: B3 chain 1
# chain 2: B3 chain 2 with N195D, A215T
# notes: ROR1×CD3 two chain diabody
# B7: DART-29 (bispecific antibody)
# chain 1: B3 chain 1 with Y97N
# chain 2: B3 chain 2 with N195D, A215T
# notes: ROR1×CD3 two chain diabody; VL(11): R71W/Y92N; VH(7): F67L/N76D/A93T
# B8: DART-27 (bispecific antibody)
# chain 1: B3 chain 1 with S70I
# chain 2: B3 chain 2 with L186F, A215T
# notes: ROR1×CD3 two chain diabody; VL(12): S66I R71W; VH(3): A93T
# B9: DART-28 (bispecific antibody)
# chain 1: B3 chain 1 with S70I, Y97N
# chain 2: B3 chain 2 with L186F, A215T
# notes: ROR1×CD3 two chain diabody; VL(13): S66I/R71W/Y92N; VH(3): A93T
# B10: DART-33 (bispecific antibody)
# chain 1: QLVLTQSPSASASLGSSVKLTCTLSSGHKTDTIDWYQQQPGKAPRYLMKLEGSGSYNKGSGVPDRFSGSSSGADWYLTISSLQSEDEADYYCGTDYPGNYLFGGGTQLTVLGGGGSGGGGEVQLVESGGGLVQPGGSLRLSCAASGFTFSTYAMNWVRQAPGKGLEWVGRIRSKYNNYATYYADSVKGRFTISRDDSKNSLYLQMNSLKTEDTAVYYCVRHGNFGNSYVSWFAYWGQGTLVTVSSGGCGGGKVAALKEKVAALKEKVAALKEKVAALKE
# chain 2: B3 chain 2 with V155I, V182A, N195D, A215T
# notes: ROR1×CD3 two chain diabody
# B11: DART-31 (bispecific antibody)
# chain 1: B3 chain 1 with S70I, Y97N
# chain 2: B3 chain 2 with N195D, A215T
# notes: ROR1×CD3 two chain diabody; VL(13): S66I/R71W/Y92N; VH(7): F67L/N76D/A93T
# B12: DART-24 (bispecific antibody)
# chain 1: B3 chain 1 with W76R, Y97N
# chain 2: B3 chain 2 with L186F, A215T
# notes: ROR1×CD3 two chain diabody; VL(10): Y92N; VH(3): A93T
# B13: DART-23 (bispecific antibody)
# chain 1: B3 chain 1
# chain 2: B3 chain 2 with L186F, N195D
# B14: TRIDENT-C (other)
# chain 1: QLVLTQSPSASASLGSSVKLTCTLSSGHKTDTIDWYQQQPGKAPRYLMKLEGSGSYNKGSGVPDRFSGSSSGADWYLTISSLQSEDEADYYCGTDYPGNYLFGGGTQLTVLGGGGSGGGGEVQLVESGGGLVQPGGSLRLSCAASGFTFSTYAMNWVRQAPGKGLEWVGRIRSKYNNYATYYADSVKGRFTISRDDSKNSLYLQMNSLKTEDTAVYYCVRHGNFGNSYVSWFAYWGQGTLVTVSSASTKGEVAACEKEVAALEKEVAALEKEVAALEKGGGDKTHTCPPCPAPEAAGGPSVFLFPPKPKDTLMISRTPEVTCVVVDVSHEDPEVKFNWYVDGVEVHNAKTKPREEQYNSTYRVVSVLTVLHQDWLNGKEYKCKVSNKALPAPIEKTISKAKGQPREPQVYTLPPSREEMTKNQVSLWCLVKGFYPSDIAVEWESNGQPENNYKTTPPVLDSDGSFFLYSKLTVDKSRWQQGNVFSCSVMHEALHNHYTQKSLSLSPGK
# chain 2: B1 chain 2 with V155I, V182A, F186L, N195D, A215T
# chain 3: B1 chain 3
# notes: anti-ROR1-VL(14) and VH(8)
# B15: TRIDENT-D (other)
# chain 1: B14 chain 1
# chain 2: B1 chain 2 with V155I, V182A, F186L, N195D, A215T
# heavy: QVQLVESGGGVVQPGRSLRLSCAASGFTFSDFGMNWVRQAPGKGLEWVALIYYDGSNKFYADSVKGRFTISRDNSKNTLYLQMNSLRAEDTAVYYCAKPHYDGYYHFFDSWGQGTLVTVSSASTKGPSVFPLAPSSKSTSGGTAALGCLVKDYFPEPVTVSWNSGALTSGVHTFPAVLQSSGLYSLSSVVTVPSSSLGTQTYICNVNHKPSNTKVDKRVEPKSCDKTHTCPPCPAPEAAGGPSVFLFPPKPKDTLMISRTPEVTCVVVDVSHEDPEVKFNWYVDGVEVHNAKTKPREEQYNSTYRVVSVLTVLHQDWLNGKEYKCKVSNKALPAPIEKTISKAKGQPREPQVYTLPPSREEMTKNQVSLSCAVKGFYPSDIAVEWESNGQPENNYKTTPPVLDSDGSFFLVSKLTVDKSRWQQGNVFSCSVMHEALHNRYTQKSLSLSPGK
# light: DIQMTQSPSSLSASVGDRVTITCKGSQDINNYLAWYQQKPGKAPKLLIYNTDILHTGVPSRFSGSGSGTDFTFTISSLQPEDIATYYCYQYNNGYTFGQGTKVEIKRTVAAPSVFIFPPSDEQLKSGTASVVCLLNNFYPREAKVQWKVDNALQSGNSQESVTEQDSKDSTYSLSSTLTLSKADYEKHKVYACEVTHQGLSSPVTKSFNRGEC
# Biological target: T1, human ROR1 expressed on the surface of cancer cells (human, UniProt Q01973 30-937)
# T1 sequence (Q01973 30-937): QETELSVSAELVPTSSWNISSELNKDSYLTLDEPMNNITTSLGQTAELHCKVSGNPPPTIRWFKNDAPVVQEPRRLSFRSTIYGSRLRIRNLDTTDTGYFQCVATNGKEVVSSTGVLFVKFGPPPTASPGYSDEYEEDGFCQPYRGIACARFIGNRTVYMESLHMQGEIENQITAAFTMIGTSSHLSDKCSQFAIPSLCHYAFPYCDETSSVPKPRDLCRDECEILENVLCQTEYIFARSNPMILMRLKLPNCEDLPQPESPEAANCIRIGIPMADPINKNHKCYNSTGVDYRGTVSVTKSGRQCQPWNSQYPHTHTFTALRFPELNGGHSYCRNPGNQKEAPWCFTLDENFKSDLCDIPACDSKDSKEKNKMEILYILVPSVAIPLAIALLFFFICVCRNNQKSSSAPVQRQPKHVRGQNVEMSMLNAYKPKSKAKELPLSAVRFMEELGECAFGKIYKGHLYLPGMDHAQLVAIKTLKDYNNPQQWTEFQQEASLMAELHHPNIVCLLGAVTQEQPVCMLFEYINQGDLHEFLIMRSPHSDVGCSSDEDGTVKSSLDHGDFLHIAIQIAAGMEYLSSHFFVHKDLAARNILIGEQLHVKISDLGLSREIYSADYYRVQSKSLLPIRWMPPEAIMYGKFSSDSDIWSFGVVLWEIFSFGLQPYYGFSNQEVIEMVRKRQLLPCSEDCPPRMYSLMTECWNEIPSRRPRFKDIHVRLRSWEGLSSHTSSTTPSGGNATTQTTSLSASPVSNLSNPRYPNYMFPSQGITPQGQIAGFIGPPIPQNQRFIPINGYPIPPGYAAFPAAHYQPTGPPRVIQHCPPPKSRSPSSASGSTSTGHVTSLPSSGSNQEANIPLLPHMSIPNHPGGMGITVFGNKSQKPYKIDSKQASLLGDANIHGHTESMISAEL
# Test: cell-based or functional assay
Binder,"EC50 nM, redirected cell killing of Calu-3 cells by pan T-cells (LDH release) [nM]","EC50 nM, redirected cell killing of JIMT-1 cells by pan T-cells (LDH release) [nM]","EC50 nM, redirected cell killing of NCI-H1975 cells by pan T-cells (LDH release) [nM]"
B1,0.0027,0.0022,0.0039
B2,0.0044,0.0052,0.0153

# Biological target: T2, His-tagged soluble human ROR1 (shROR1-His) (human, UniProt Q01973 30-406)
# T2 construct: also called ROR1 protein; immobilized ROR1; not shown: His-Tag
# T2 sequence (Q01973 30-406): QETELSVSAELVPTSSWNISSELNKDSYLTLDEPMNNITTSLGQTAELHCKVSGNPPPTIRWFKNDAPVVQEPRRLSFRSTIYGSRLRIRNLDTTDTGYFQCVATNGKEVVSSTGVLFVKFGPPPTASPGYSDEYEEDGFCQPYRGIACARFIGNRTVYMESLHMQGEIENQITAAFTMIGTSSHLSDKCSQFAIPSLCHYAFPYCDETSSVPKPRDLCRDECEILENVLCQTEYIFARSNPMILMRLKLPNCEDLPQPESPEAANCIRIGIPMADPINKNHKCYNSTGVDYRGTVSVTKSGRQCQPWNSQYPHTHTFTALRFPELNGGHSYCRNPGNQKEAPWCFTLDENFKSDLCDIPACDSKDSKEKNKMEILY
# Test: SPR (Biacore), diabody captured via anti-E/K-coil, shROR1-His as analyte
# Procedure: The binding kinetics of DART-1 to DART-6, DART-10 to DART-17, DART-20 to DART-33 was investigated using Biacore analysis in which ROR1 protein was passed over immobilized diabodies. Briefly, each diabody construct was captured on immobilized anti-E/K-coil surface and was incubated with shROR1-His at 25 and 100 nM, and the kinetics of binding were determined via Biacore analysis.
row,Binder,Kd [nM]
1,B3,1.3
2,B4,1.2
3,B5,1.2
4,B6,1.2
5,B7,1.3
6,B8,1.2
7,B9,1.5
8,B10,1.3
9,B11,0.9
10,B12,2.4

# Biological target: T1, human ROR1 expressed on the surface of …
# Test: cell-based or functional assay
# Remark: another data set of the same source
Binder,"MR(%) (maximum response), redirected cell killing of HBL-2 cells (LDH release)","MR(%) (maximum response), redirected cell killing of JIMT-1 cells (LDH release)","MR(%) (maximum response), redirected cell killing of Jeko-1 cells (LDH release)"
B6,27,40,38.2
B13,25.6,37.3,36.4

# Biological target: T2, His-tagged soluble human ROR1 …
# Test: SPR (BIACORE), trivalent binding molecule 6.25 to 100 nM passed over immobilized shROR1-His
# Procedure: The binding kinetics of each of the ROR1×CD3×CD8 trivalent binding molecules to ROR1 was investigated using BIACORE® analysis in which each trivalent binding molecule (6.25 to 100 nM) was passed over immobilized shROR1-His essentially as described above.
row,Binder,Kd [nM]
1,B1,1.3
2,B14,0.19
3,B2,1.6
4,B15,0.26
